# Test results reported in US20110159021A1 (Dana-Farber, published 2011).
# B1: XBP1 110-118 (KLLLENQLL) (peptide)
# peptide: KLLLENQLL
# notes: Native peptide of non-spliced XBP1, synthetic; also called XBP1 #5 peptide
# B2: XBP1 189-197 (ILAVLTLQI) (peptide)
# peptide: ILAVLTLQI
# notes: Native peptide of non-spliced XBP1, synthetic; also called XBP1 #3 peptide
# B3: XBP1 117-125 (LLREKTHGL) (peptide)
# peptide: LLREKTHGL
# notes: also called XBP1 #1 peptide
# B4: heteroclitic spliced XBP1 367-375 (YLFPQLISV) (peptide)
# peptide: YLFPQLISV
# notes: Heteroclitic variant of the spliced XBP1 367-375 peptide, synthetic; also called SP XBP1 #3M; XBP1 SP 3M
# B5: CS1-P3: CS1 232-240 (LLVPLLLSL) (peptide)
# peptide: LLVPLLLSL
# notes: Native peptide of CS1, synthetic
# B6: CS1-P2: CS1 239-247 (SLFVLGLFL) (peptide)
# peptide: SLFVLGLFL
# notes: as for B5
# B7: CS1-P1: CS1 236-245 (LLLSLFVLGL) (peptide)
# peptide: LLLSLFVLGL
# B8: CS1-P4: CS1 9-17 (TLIYILWQL) (peptide)
# peptide: TLIYILWQL
# notes: as for B5
# B9: CD138 260-268 (GLVGLIFAV) (peptide)
# peptide: GLVGLIFAV
# notes: Native peptide of CD138, synthetic; also called CD138 #2p; CD138 #2 peptide
# B10: SP XBP1 367-375 (ELFPQLISV) (peptide)
# peptide: ELFPQLISV
# notes: Native peptide of spliced XBP1, synthetic; also called SP XBP1 #3 peptide; SP XBP1 #3p
# B11: SP XBP1 196-204 (GILDNLDPV) (peptide)
# peptide: GILDNLDPV
# notes: also called SP XBP1 #1 peptide; SP XBP1 #1p
# B12: XBP1 184-192 (NISPWILAV) (peptide)
# peptide: NISPWILAV
# notes: Native peptide of non-spliced XBP1, synthetic; also called XBP1 #2 peptide; XBP1 #2p
# Molecular target: T1, HLA-A2 molecules on the surface of human T2 cells (human)
# T1 construct: MHC class I molecule that the peptides load onto; also called HLA-A2.1; HLA-A*0201
# Assay: T2 peptide-binding assay; HLA-A2 up-regulation on T2 cells, flow cytometry
row,Binder,binding result
1,B1,binds
2,B2,binds
3,B3,binds

# Molecular target: T1, HLA-A2 molecules on the surface of …
# Assay: peptide stability assay on T2 cells after Brefeldin A, flow cytometry with FITC anti-HLA-A2 mAb
row,Binder,binding result
1,B4,binds

# Molecular target: T1, HLA-A2 molecules on the surface of …
# Assay: T2 peptide-binding assay; HLA-A2 up-regulation on T2 cells, 50 ug/mL peptide plus b2m, flow cytometry with PE anti-HLA-A2 mAb
row,Binder,binding result
1,B5,binds
2,B6,binds
3,B7,binds
4,B8,binds

# Molecular target: T1, HLA-A2 molecules on the surface of …
# Assay: T2 peptide-binding assay; HLA-A2 up-regulation on T2 cells, 50 ug/ml peptide plus b2m, flow cytometry with FITC anti-HLA-A2 mAb
row,Binder,MFI (HLA-A2 mean fluorescence intensity) [MFI]
1,B9,690
2,B10,785
3,B11,762
4,B12,720
